Experiment [1] deals with T1, human GHRH receptor (human pituitary membrane homogenates) (human) (UniProt Q02643).
T1 sequence (looked up): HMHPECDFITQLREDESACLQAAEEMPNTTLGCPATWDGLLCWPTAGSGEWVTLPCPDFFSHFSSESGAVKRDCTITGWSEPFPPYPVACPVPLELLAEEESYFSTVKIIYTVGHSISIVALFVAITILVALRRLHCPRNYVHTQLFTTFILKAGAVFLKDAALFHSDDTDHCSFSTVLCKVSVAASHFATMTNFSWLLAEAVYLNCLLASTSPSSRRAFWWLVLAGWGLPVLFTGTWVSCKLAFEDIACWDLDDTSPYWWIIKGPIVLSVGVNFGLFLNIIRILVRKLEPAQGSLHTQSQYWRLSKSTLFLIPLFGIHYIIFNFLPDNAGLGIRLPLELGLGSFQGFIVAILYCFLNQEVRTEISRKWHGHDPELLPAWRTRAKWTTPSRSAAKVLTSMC
The experiment in a line: radioligand competition vs 125I-JV-1-42 (0.2 nM), human pituitary membranes.

Experiment [2] concerns the target T2, human GHRH receptor (human pituitary membrane homogenates) (human, UniProt Q02643 23-423).
T2 construct: whole, on cells; Native receptor in human pituitary membrane homogenates, not on intact cells; also called hGHRH receptor
T2 sequence (looked up): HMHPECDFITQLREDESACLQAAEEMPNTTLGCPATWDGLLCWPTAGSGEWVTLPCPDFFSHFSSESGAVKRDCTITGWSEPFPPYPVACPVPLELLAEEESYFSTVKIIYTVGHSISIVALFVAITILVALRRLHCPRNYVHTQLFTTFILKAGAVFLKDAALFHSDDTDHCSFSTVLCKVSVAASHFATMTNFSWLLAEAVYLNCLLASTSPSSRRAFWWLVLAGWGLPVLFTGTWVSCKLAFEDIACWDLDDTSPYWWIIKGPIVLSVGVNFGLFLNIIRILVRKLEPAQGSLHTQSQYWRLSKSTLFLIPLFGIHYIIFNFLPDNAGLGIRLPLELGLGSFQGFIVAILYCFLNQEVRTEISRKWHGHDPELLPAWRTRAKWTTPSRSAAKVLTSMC
The experiment in a line: radioligand competition vs [His1,125I-Tyr10,Nle27]hGHRH(1-32)NH2 (0.2 nM), human pituitary membranes. The text has this: Normal human pituitaries were purchased from the National Hormone and Peptide Program (A. F. Parlow, Los Angeles, County Harbor—UCLA Medical Center, Torrance, Calif.).
In general terms: Loss of bound radioactivity is the signal in a displacement assay; it reports binding, not function.

Experiment [3] has as its target T3, human GHRH receptor (human pituitary membrane homogenates) (human), Q02643.
T3 chain: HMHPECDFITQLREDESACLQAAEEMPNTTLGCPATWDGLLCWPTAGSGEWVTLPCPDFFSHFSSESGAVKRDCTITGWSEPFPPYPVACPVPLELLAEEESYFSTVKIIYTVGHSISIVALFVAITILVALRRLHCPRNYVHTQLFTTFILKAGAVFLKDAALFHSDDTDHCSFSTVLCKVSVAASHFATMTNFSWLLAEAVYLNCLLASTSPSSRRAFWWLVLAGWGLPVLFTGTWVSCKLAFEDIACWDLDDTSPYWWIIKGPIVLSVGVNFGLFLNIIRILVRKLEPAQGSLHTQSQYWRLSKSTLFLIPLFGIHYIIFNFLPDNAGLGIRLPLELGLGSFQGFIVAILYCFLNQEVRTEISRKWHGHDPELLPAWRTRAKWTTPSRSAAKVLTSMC
Briefly: radioligand competition vs 125I-JV-1-42 (0.2 nM), human pituitary membranes.

Non-standard residues stand in square brackets, D forms with d. No end group written: not given here. *: point of attachment. Desaminotyrosyl = O=C(CCc1ccc(O)cc1)*; NMeY = CN[C@@H](Cc1ccc(O)cc1)C(=O)O; hArg = N=C(N)NCCCC[C@H](N)C(=O)O; Nle = CCCC[C@H](N)C(=O)O; Orn = NCCC[C@H](N)C(=O)O; Abu = CC[C@H](N)C(=O)O; Aoc = NCCCCCCCC(=O)O; Ava = NCCCCC(=O)O

For [NMeY]ADAIFTQSYR[Orn]VL[Abu]QLSAR[Orn]LLQDI[Nle]DR[Ava]-NH2 (peptide, from a related filing) [P-22325 [N-Me-Tyr^1, Gln^8, Orn^12, Abu^15, Orn^21, Nle^27, Asp^28, Apa^30]hGHRH(1-30)NH2], the Relative affinity (Binding potency) vs JI-38 in experiment [1] was 1.14 fold.

B1: P-22327 [Dat^1, Gln^8, Orn^12, Abu^15, Orn^21, Nle^27, Asp^28, Apa^30]hGHRH(1-30)NH2 (peptide, from a related filing)
peptide: [Desaminotyrosyl]ADAIFTQSYR[Orn]VL[Abu]QLSAR[Orn]LLQDI[Nle]DR[Ava]-NH2
SMILES: CCCC[C@H](NC(=O)[C@@H](NC(=O)[C@H](CC(=O)O)NC(=O)[C@H](CCC(N)=O)NC(=O)[C@H](CC(C)C)NC(=O)[C@H](CC(C)C)NC(=O)[C@H](CCCN)NC(=O)[C@H](CCCNC(=N)N)NC(=O)[C@H](C)NC(=O)[C@H](CO)NC(=O)[C@H](CC(C)C)NC(=O)[C@H](CCC(N)=O)NC(=O)[C@H](CC)NC(=O)[C@H](CC(C)C)NC(=O)[C@@H](NC(=O)[C@H](CCCN)NC(=O)[C@H](CCCNC(=N)N)NC(=O)[C@H](Cc1ccc(O)cc1)NC(=O)[C@H](CO)NC(=O)[C@H](CCC(N)=O)NC(=O)[C@@H](NC(=O)[C@H](Cc1ccccc1)NC(=O)[C@@H](NC(=O)[C@H](C)NC(=O)[C@H](CC(=O)O)NC(=O)[C@H](C)NC(=O)CCc1ccc(O)cc1)[C@@H](C)CC)[C@@H](C)O)C(C)C)[C@@H](C)CC)C(=O)N[C@@H](CC(=O)O)C(=O)N[C@@H](CCCNC(=N)N)C(=O)NCCCCC(N)=O
Regarding B1, the Relative affinity (Binding potency) vs JI-38 in experiment [1] is 2.18 fold.

B2: P-23252 [Dat^1-D-Ala^2, Orn^12, Abu^15, Orn^21, Nle^27, Asp^28, Har^30]hGHRH(1-30)NH2 (peptide)
peptide: [Desaminotyrosyl][dA]DAIFTNSYR[Orn]VL[Abu]QLSAR[Orn]LLQDI[Nle]DR[hArg]-NH2
SMILES: CCCC[C@H](NC(=O)[C@@H](NC(=O)[C@H](CC(=O)O)NC(=O)[C@H](CCC(N)=O)NC(=O)[C@H](CC(C)C)NC(=O)[C@H](CC(C)C)NC(=O)[C@H](CCCN)NC(=O)[C@H](CCCNC(=N)N)NC(=O)[C@H](C)NC(=O)[C@H](CO)NC(=O)[C@H](CC(C)C)NC(=O)[C@H](CCC(N)=O)NC(=O)[C@H](CC)NC(=O)[C@H](CC(C)C)NC(=O)[C@@H](NC(=O)[C@H](CCCN)NC(=O)[C@H](CCCNC(=N)N)NC(=O)[C@H](Cc1ccc(O)cc1)NC(=O)[C@H](CO)NC(=O)[C@H](CC(N)=O)NC(=O)[C@@H](NC(=O)[C@H](Cc1ccccc1)NC(=O)[C@@H](NC(=O)[C@H](C)NC(=O)[C@H](CC(=O)O)NC(=O)[C@@H](C)NC(=O)CCc1ccc(O)cc1)[C@@H](C)CC)[C@@H](C)O)C(C)C)[C@@H](C)CC)C(=O)N[C@@H](CC(=O)O)C(=O)N[C@@H](CCCNC(=N)N)C(=O)N[C@@H](CCCCNC(=N)N)C(N)=O
notes: also called Peptide 23252
In the case of B2, in experiment [2], the “Relative affinity (Binding potency) vs GHRH” value (“Relative affinity … vs GHRH” below) was 42.3 fold and the “Relative affinity (Binding potency) vs JI-38” value (from here on “Relative affinity … vs JI-38”) was 13.9 fold.

B3: P-23254 [Dat^1, D-Ala^2, Thr^8, Orn^12, Abu^15, Orn^21, Nle^27, Asp^28, Har^30]hGHRH(1-30)NH2 (peptide)
peptide: [Desaminotyrosyl][dA]DAIFTTSYR[Orn]VL[Abu]QLSAR[Orn]LLQDI[Nle]DR[hArg]-NH2
SMILES: CCCC[C@H](NC(=O)[C@@H](NC(=O)[C@H](CC(=O)O)NC(=O)[C@H](CCC(N)=O)NC(=O)[C@H](CC(C)C)NC(=O)[C@H](CC(C)C)NC(=O)[C@H](CCCN)NC(=O)[C@H](CCCNC(=N)N)NC(=O)[C@H](C)NC(=O)[C@H](CO)NC(=O)[C@H](CC(C)C)NC(=O)[C@H](CCC(N)=O)NC(=O)[C@H](CC)NC(=O)[C@H](CC(C)C)NC(=O)[C@@H](NC(=O)[C@H](CCCN)NC(=O)[C@H](CCCNC(=N)N)NC(=O)[C@H](Cc1ccc(O)cc1)NC(=O)[C@H](CO)NC(=O)[C@@H](NC(=O)[C@@H](NC(=O)[C@H](Cc1ccccc1)NC(=O)[C@@H](NC(=O)[C@H](C)NC(=O)[C@H](CC(=O)O)NC(=O)[C@@H](C)NC(=O)CCc1ccc(O)cc1)[C@@H](C)CC)[C@@H](C)O)[C@@H](C)O)C(C)C)[C@@H](C)CC)C(=O)N[C@@H](CC(=O)O)C(=O)N[C@@H](CCCNC(=N)N)C(=O)N[C@@H](CCCCNC(=N)N)C(N)=O
notes: also called Peptide 23254
For the molecule B3, in experiment [2], the “Relative affinity … vs GHRH” value was 84.5 fold and the “Relative affinity … vs JI-38” value is 27.8 fold.

B4: P-23256 [Dat^1, D-Ala^2, Ala^8, Orn^12, Abu^15, Orn^21, Nle^27, Asp^28, Har^30]hGHRH(1-30)NH2 (peptide)
peptide: [Desaminotyrosyl][dA]DAIFTASYR[Orn]VL[Abu]QLSAR[Orn]LLQDI[Nle]DR[hArg]-NH2
SMILES: CCCC[C@H](NC(=O)[C@@H](NC(=O)[C@H](CC(=O)O)NC(=O)[C@H](CCC(N)=O)NC(=O)[C@H](CC(C)C)NC(=O)[C@H](CC(C)C)NC(=O)[C@H](CCCN)NC(=O)[C@H](CCCNC(=N)N)NC(=O)[C@H](C)NC(=O)[C@H](CO)NC(=O)[C@H](CC(C)C)NC(=O)[C@H](CCC(N)=O)NC(=O)[C@H](CC)NC(=O)[C@H](CC(C)C)NC(=O)[C@@H](NC(=O)[C@H](CCCN)NC(=O)[C@H](CCCNC(=N)N)NC(=O)[C@H](Cc1ccc(O)cc1)NC(=O)[C@H](CO)NC(=O)[C@H](C)NC(=O)[C@@H](NC(=O)[C@H](Cc1ccccc1)NC(=O)[C@@H](NC(=O)[C@H](C)NC(=O)[C@H](CC(=O)O)NC(=O)[C@@H](C)NC(=O)CCc1ccc(O)cc1)[C@@H](C)CC)[C@@H](C)O)C(C)C)[C@@H](C)CC)C(=O)N[C@@H](CC(=O)O)C(=O)N[C@@H](CCCNC(=N)N)C(=O)N[C@@H](CCCCNC(=N)N)C(N)=O
notes: also called Peptide 23256
As to B4, in experiment [2], the “Relative affinity … vs GHRH” value stood at 148 fold and the “Relative affinity … vs JI-38” value was 48.7 fold.

B5: P-21304 [Dat^1, D-Ala^2, Gln^8, Orn^12, Abu^15, Orn^21, Nle^27, Asp^28, Amc^30]hGHRH(1-30)NH2 (peptide)
peptide: [Desaminotyrosyl][dA]DAIFTQSYR[Orn]VL[Abu]QLSAR[Orn]LLQDI[Nle]DR[Aoc]-NH2
SMILES: CCCC[C@H](NC(=O)[C@@H](NC(=O)[C@H](CC(=O)O)NC(=O)[C@H](CCC(N)=O)NC(=O)[C@H](CC(C)C)NC(=O)[C@H](CC(C)C)NC(=O)[C@H](CCCN)NC(=O)[C@H](CCCNC(=N)N)NC(=O)[C@H](C)NC(=O)[C@H](CO)NC(=O)[C@H](CC(C)C)NC(=O)[C@H](CCC(N)=O)NC(=O)[C@H](CC)NC(=O)[C@H](CC(C)C)NC(=O)[C@@H](NC(=O)[C@H](CCCN)NC(=O)[C@H](CCCNC(=N)N)NC(=O)[C@H](Cc1ccc(O)cc1)NC(=O)[C@H](CO)NC(=O)[C@H](CCC(N)=O)NC(=O)[C@@H](NC(=O)[C@H](Cc1ccccc1)NC(=O)[C@@H](NC(=O)[C@H](C)NC(=O)[C@H](CC(=O)O)NC(=O)[C@@H](C)NC(=O)CCc1ccc(O)cc1)[C@@H](C)CC)[C@@H](C)O)C(C)C)[C@@H](C)CC)C(=O)N[C@@H](CC(=O)O)C(=O)N[C@@H](CCCNC(=N)N)C(=O)NCCCCCCCC(N)=O
notes: also called Peptide 21304
Regarding B5, in experiment [2], the “Relative affinity … vs GHRH” value stood at 74 fold and the “Relative affinity … vs JI-38” value stood at 24.4 fold.

B6: P-27413 [Dat^1, Gln^8, His^11, Orn^12, Abu^15, His^20, Orn^21, Nle^27, Asp^28]hGHRH(1-29)NH-CH3 (peptide)
chain: [Desaminotyrosyl]ADAIFTQSYH[Orn]VL[Abu]QLSAH[Orn]LLQDI[Nle]DR-NHMe
SMILES: CCCC[C@H](NC(=O)[C@@H](NC(=O)[C@H](CC(=O)O)NC(=O)[C@H](CCC(N)=O)NC(=O)[C@H](CC(C)C)NC(=O)[C@H](CC(C)C)NC(=O)[C@H](CCCN)NC(=O)[C@H](Cc1c[nH]cn1)NC(=O)[C@H](C)NC(=O)[C@H](CO)NC(=O)[C@H](CC(C)C)NC(=O)[C@H](CCC(N)=O)NC(=O)[C@H](CC)NC(=O)[C@H](CC(C)C)NC(=O)[C@@H](NC(=O)[C@H](CCCN)NC(=O)[C@H](Cc1c[nH]cn1)NC(=O)[C@H](Cc1ccc(O)cc1)NC(=O)[C@H](CO)NC(=O)[C@H](CCC(N)=O)NC(=O)[C@@H](NC(=O)[C@H](Cc1ccccc1)NC(=O)[C@@H](NC(=O)[C@H](C)NC(=O)[C@H](CC(=O)O)NC(=O)[C@H](C)NC(=O)CCc1ccc(O)cc1)[C@@H](C)CC)[C@@H](C)O)C(C)C)[C@@H](C)CC)C(=O)N[C@@H](CC(=O)O)C(=O)N[C@@H](CCCNC(=N)N)C(=O)NC
For orientation: IC50 means the point on the concentration scale where inhibition reaches its midpoint. In experiment [3], B6 had an IC50 of 2.45 nM and a Relative affinity (Binding potency) vs JI-38 of 1.78 fold.

The record behind these values is patent publication US20140193378A1 (UNIVERSITY OF MIAMI, published 2014).
